Test results published in patent US20170137511A1 (CALYPSO BIOTECH, published 2017).

T1: recombinant mouse IL-15 (R&D Systems cat. no. 447-ML) (mouse, UniProt P48346 49-162)
T1 sequence: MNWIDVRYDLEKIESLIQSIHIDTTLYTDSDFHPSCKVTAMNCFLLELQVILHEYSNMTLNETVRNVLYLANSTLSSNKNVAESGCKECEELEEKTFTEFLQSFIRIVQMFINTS

T2: recombinant rat IL-15 (Sigma cat. no. SRP4172) (rat, UniProt P97604 49-162)
T2 sequence: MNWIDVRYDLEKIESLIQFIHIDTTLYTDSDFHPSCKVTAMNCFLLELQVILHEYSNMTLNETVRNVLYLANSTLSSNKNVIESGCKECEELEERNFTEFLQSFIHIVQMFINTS


Key:
[1] = molecular target: T3, recombinant human IL-15 (Prospec cat no. CYT230) (human, UniProt P40933 49-162); assay: ELISA, plate-bound recombinant human IL-15 (100 ng/well), HRP goat anti-human IgG, absorbance at 450 nm
T3 sequence (P40933 other isoform, or with tags, fused parts or gaps): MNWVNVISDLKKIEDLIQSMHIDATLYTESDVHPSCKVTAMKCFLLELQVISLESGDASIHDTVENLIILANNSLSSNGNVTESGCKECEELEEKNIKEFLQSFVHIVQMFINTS
Description: (§1) Maxisorp plates were coated with recombinant human IL-15 (Prospec cat no. CYT230) or Rhesus macaque IL-15 (MyBiosource cat. no. MBS948894) at 100 ng/well in carbonate coating buffer for 2 hours at 37° C. Since published sequences of Rhesus macaque and Cynomolgus monkey IL-15 are identical, such recombinant IL-15 protein was referred to as Macaque Monkey IL-15. Tested human IL-15 recombinant protein has a sequence identical to that provided in SEQ ID NO: 1 but with an additional methionine at the N-terminal position as usually done for expressing recombinant proteins in E. Coli. Tested recombinant Macaque Monkey IL-15 was produced in yeast and has a sequence identical to that provided in SEQ ID NO: 4 but with an additional N-terminal His tag.
The plate was then blocked with 2% normal goat serum for 30 min at 37° C. and washed 6 times with PBS-Tween (0.05% Tween-20 in PBS, v/v). […] The reaction was stopped by the addition of 1M H₂SO₄ and read at 450 nm. Dose response curves of absorbance versus concentration were plotted and analyzed to determine half-maximal binding concentrations (BC₅₀) using the Graphpad Prism software. BC₅₀ values expressed as molarity were extrapolated from concentration in ng/ml using a 150 kDa molecular weight value for all antibodies.

[2] = molecular target: T4, recombinant Macaque Monkey IL-15 (MyBiosource cat. no. MBS948894) (Rhesus macaque / Cynomolgus monkey, UniProt P40221 49-162 (Chlorocebus aethiops entry)); assay: ELISA, plate-bound Macaque Monkey IL-15; printed as BC50 (half-maximal binding concentration)
T4 construct: Produced in yeast; also called Rhesus macaque IL-15; recombinant monkey IL-15; not shown: additional N-terminal His tag
T4 sequence (P40221 49-162): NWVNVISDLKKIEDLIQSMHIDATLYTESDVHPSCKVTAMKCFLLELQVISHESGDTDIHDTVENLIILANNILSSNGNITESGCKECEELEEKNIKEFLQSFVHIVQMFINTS
Description: as §1
(§2) The plate was then blocked with 2% normal goat serum for 30 min at 37° C. and washed 6 times with PBS-Tween (0.05% Tween-20 in PBS, v/v). Test antibodies were added to the plate in triplicate at various dilutions in PBS-Tween and the plate was incubated with gentle rocking at room temperature for 2 hours. The plate was then washed 6 times with PBS-Tween and an appropriate dilution of goat anti-human IgG antibody (Millipore cat. no. AP309P) conjugated to horseradish peroxidase (HRP) was added to the plate and left rocking at room temperature for 1 hour. The plate was then washed 6 times with PBS-Tween and incubated with TMB substrate. The reaction was stopped by the addition of 1M H₂SO₄ and read at 450 nm. Dose response curves of absorbance versus concentration were plotted and analyzed to determine half-maximal binding concentrations (BC₅₀) using the Graphpad Prism software. BC₅₀ values expressed as molarity were extrapolated from concentration in ng/ml using a 150 kDa molecular weight value for all antibodies.

[3] = molecular target: T3, recombinant human IL-15 (Prospec cat …); assay: ELISA, plate-bound human IL-15; printed as BC50 (half-maximal binding concentration)
Description: as §1, §2

[4] = molecular target: recombinant human IL-2 (R&D Systems cat. no. 202-IL-010) (human, UniProt P60568 21-153); assay: ELISA, plate-bound recombinant human IL-2 (100 ng/well), HRP goat anti-human IgG, absorbance at 450 nm
recombinant human IL-2 (R&D Systems cat. no. 202-IL-010), sequence (P60568 21-153 limits assumed): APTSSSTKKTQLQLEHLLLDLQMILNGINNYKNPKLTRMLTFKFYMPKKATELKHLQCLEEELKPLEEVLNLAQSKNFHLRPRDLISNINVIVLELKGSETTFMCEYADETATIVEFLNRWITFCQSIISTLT
Description: Maxisorp plates were coated with recombinant human IL-2 (R&D Systems cat. no. 202-IL-010) of SEQ ID NO: 38 at 100 ng/well in carbonate coating buffer for 2 hours at 37° C. The plate was then blocked with 2% normal goat serum for 30 min at 37° C. and washed 4 times with PBS-Tween (0.05% Tween-20 in PBS, v/v). Test antibodies or positive control biotinylated antibody (anti-IL-2 Novus Bio cat. no. NBP1-43491) were added to the plate in duplicate at 5 μg/ml in PBS-Tween and the plate was incubated with gentle rocking at room temperature for 2 hours. The plate was then washed 4 times with PBS-Tween and an appropriate dilution of goat anti-human IgG antibody (Millipore cat. no. AP309P) conjugated to horseradish peroxidase (HRP) for test antibodies, or streptavidin-HRP for positive control antibody, was added to the plate and left rocking at room temperature for 1 hour. The plate was then washed 4 times with PBS-Tween and incubated with TMB (3,3′,5,5′-tetramethylbenzidine) substrate. The reaction was stopped by the addition of 1 M H₂SO₄ and read at 450 nm.

[5] = molecular target: T5, recombinant human IL-15 (R&D systems cat. no. 247-IL) (human, UniProt P40933 49-162); assay: cell-based or functional assay
T5 sequence (P40933 49-162 limits assumed): as the sequence (P40221 49-162) above, with H52L, T57A, D58S, I73S, I80V counted along it

[6] = molecular target: T4, recombinant Macaque Monkey IL-15 …; assay: cell-based or functional assay
[7] = molecular target: T1, recombinant mouse IL-15 (R&D Systems …); assay: ELISA, plate-bound recombinant mouse IL-15 (100 ng/well), HRP goat anti-human IgG, absorbance at 450 nm
Description: (§3) Maxisorp plates were coated with recombinant mouse IL-15 (R&D Systems cat. no. 447-ML) or rat IL-15 (Sigma cat. no. SRP4172) at 100 ng/well in carbonate coating buffer for 2 hours at 37° C. Tested IL-15 recombinant proteins have a sequence identical to that provided in SEQ ID NO: 2 (mouse IL-15) and SEQ ID NO: 3 (rat IL-15) but with an additional methionine at the N-terminal position as usually done for expressing recombinant proteins in E. Coli.
(§4) The plate was then blocked with 2% normal goat serum for 30 min at 37° C. and washed 6 times with PBS-Tween (0.05% Tween-20 in PBS, v/v). Test antibodies were added to the plate in triplicate at various dilutions in PBS-Tween and the plate was incubated with gentle rocking at room temperature for 2 hours. As positive controls, rabbit-anti-mouse IL-15 (Acris cat. no. AP01124PU-S) or rabbit anti-rat IL-15 (Biovision cat. no. 5172) antibodies were tested at the same concentrations. The plate was then washed 6 times with PBS-Tween and an appropriate dilution of HRP-conjugated goat anti-human IgG antibody (Millipore cat. no. AP309P) for humanized antibodies, or goat-anti-rabbit IgG antibody (Sigma cat. no. A 4416) for the positive controls was added and the plate was left rocking at room temperature for 1 hour. The plate was then washed 6 times with PBS-Tween and incubated with TMB substrate. The reaction was stopped by the addition of 1M H₂SO₄ and read at 450 nm. Dose response curves of absorbance versus concentration were plotted using the Graphpad Prism software.

[8] = molecular target: T2, recombinant rat IL-15 (Sigma cat. no. …); assay: ELISA, plate-bound recombinant rat IL-15 (100 ng/well), HRP goat anti-human IgG, absorbance at 450 nm
Description: as §3, §4

[9] = molecular target: T5, recombinant human IL-15 (R&D systems …); assay: cell-based or functional assay; remark: listed apart in the source
[10] = molecular target: T3, recombinant human IL-15 (Prospec cat …); assay: SPR (Biacore 3000), human IL-15 amine-coupled to the chip, antibody injected, 1:1 Langmuir fit
Description: Human IL-15 (Prospec cat no. CYT230) was immobilized onto a CMS chip (GE Healthcare) using standard amine coupling, and antibodies injected at various concentrations in 120 μl phosphate buffer saline with a flow rate of […]. Binding kinetics were analyzed on a Biacore 3000 apparatus (GE Healthcare) with a 300 seconds dissociation period. Reference signal and 0 nM antibody concentration signal were substracted and data fitted using a 1:1 (Langmuir) binding model.

Binder | EC50 (read off the curve) [1] [µg/mL] | EC50 [2] [nM] | EC50 [3] [nM] | binding result [4] | IC50 in Kit 225 cells (nM), Human IL-15 [5] [nM] | IC50 in M-07e cells (nM), Human IL-15 [5] [nM] | IC50 in Kit 225 cells (nM), Macaque Monkey IL-15 [6] [nM] | IC50 in M-07e cells (nM), Macaque Monkey IL-15 [6] [nM] | IC50 in M07e cells for IL-15 trans presentation [9] [nM] | Kd [10] [nM] | koff [10] [s⁻¹] | kon [10] [M⁻¹ s⁻¹] | binding result [7] | binding result [8]
huB-E29-1 (antibody, human IgG1, kappa, Humanized B-E29 variant; human IgG1 (G1m3) / kappa (Km3), produced in CHO cells; also called huVH1/huVL1; hVH1:hVK1) heavy: not shown light: DVVMTQSPLSLPVTLGQPASISCRSSQSIVDITGNTYLEWYQQRPGQSPRLLIYKVFNRFSGVPDRFSGSGSGTDFTLKISRVEAEDVGVYYCFQDSFVPYTFGQGTKLEIKRTVAAPSVFIFPPSDEQLKSGTASVVCLLNNFYPREAKVQWKVDNALQSGNSQESVTEQDSKDSTYSLSSTLTLSKADYEKHKVYACEVTHQGLSSPVTKSFNRGEC | ~0.2 | 0.487 | 1.33 | – | – | – | – | – | – | – | – | – | – | –
huB-E29-10 (antibody, human IgG1, kappa, V domains shown, Humanized B-E29 variant; human IgG1 (G1m3) / kappa (Km3), produced in CHO cells; also called huVH8/huVL1) VH: EVRLMASGGGLVQPGGSLRLSCAASEFTFSNYAMSWVRQAPGKGLEWVATISRGGDYTYYPDTVKGRFTISRDNSKNTLYLQMNSLRAEDTAVYYCARRVSMITGGYAMDYWGQGTLVTVSS VL: DVVMTQSPLSLPVTLGQPASISCRSSQSIVDITGNTYLEWYQQRPGQSPRLLIYKVFNRFSGVPDRFSGSGSGTDFTLKISRVEAEDVGVYYCFQDSFVPYTFGQGTKLEIKR | – | 0.353 | 0.507 | no binding (tested: 5 µg/ml) | 17 | 4.2 | 17.5 | 41.3 | 0.53 | 0.295 | 0.000423 | 1.43e+06 | no binding (tested: log 3.7 (about 5000 ng/mL)) | no binding (tested: log 3.7 (about 5000 ng/mL))

Second part, led by results:

EC50 (read off the curve) [1] [µg/mL] | EC50 [2] [nM] | EC50 [3] [nM] | binding result [4] | IC50 in Kit 225 cells (nM), Human IL-15 [5] [nM] | IC50 in M-07e cells (nM), Human IL-15 [5] [nM] | IC50 in Kit 225 cells (nM), Macaque Monkey IL-15 [6] [nM] | IC50 in M-07e cells (nM), Macaque Monkey IL-15 [6] [nM] | IC50 in M07e cells for IL-15 trans presentation [9] [nM] | Kd [10] [nM] | koff [10] [s⁻¹] | kon [10] [M⁻¹ s⁻¹] | Binder | binding result [7] | binding result [8]
– | 0.367 | 0.693 | – | – | – | – | – | – | – | – | – | huB-E29-18 (antibody, human IgG1, kappa, V domains shown, Humanized B-E29 variant; human IgG1 (G1m3) / kappa (Km3), produced in CHO cells; also called huVH1/huVL4) VH: EVRLMASGGGLVQPGGSLRLSCAASEFTFSNYAMSWVRQAPGKGLEWVATISRGGDYTYYPDSVKGRFTISRDNSKNTLYLQMNSLRAEDTAVYYCARRVSMITGGWAMDYWGQGTLVTVSS VL: DVVMTQSPLSLPVTLGQPASISCRSSQSIVDITGNTYLEWYQQRPGQSPRLLIYKVFNRFSGVPDRFSGSGSGTDFTLKISRVEAEDVGVYYCFQESFVPYTFGQGTKLEIKR | – | –
– | 0.5 | 1.01 | no binding (tested: 5 µg/ml) | – | – | – | – | – | – | – | – | huB-E29-4 (antibody, human IgG1, kappa, V domains shown, Humanized B-E29 variant; human IgG1 (G1m3) / kappa (Km3), produced in CHO cells; also called huVH1/huVL2) VH: EVRLMASGGGLVQPGGSLRLSCAASEFTFSNYAMSWVRQAPGKGLEWVATISRGGDYTYYPDSVKGRFTISRDNSKNTLYLQMNSLRAEDTAVYYCARRVSMITGGWAMDYWGQGTLVTVSS VL: DVVMTQSPLSLPVTLGQPASISCRSSQSIVDITGNTYLEWFQQRPGQSPRLLIYKVFNRFSGVPDRFSGSGSGTDFTLKISRVEAEDVGVYYCFQDSFVPYTFGQGTKLEIKR | – | –
